Results published in the supplement of paper PMC10567573.

B1: KLHDC10 (parent)
chain: FGGTGIPFGESNGNGVHVCNVKYK
B2: STK38L (parent)
chain: FLPGGDMMTLLMKKDTLTEEETQF

Variants of: B1
Test: protein stability index of a GFP-peptide fusion (GPS, HEK-293T) (PSI 1-6); higher = more stable
Conditions: c terminus: a fixed tail appended
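Further: lentivirally expressed fusions sorted by FACS into six bins by GFP to DsRed ratio, PSI derived from sequencing read proportions per bin multiplied by bin number.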

Protein stability index, by site and new letter:
F1: R 3.54 | L 4.04 | M 4.04 | W 2.73 | Q 4.24 | T 3.98 | V 3.79 | H 3.93 | I 3.5 | D 4.58 | S 4.25 | P 3.9 | E 3.67 | C 3.03 | A 4.18 | Y 2.23 | N 4.34 | G 4.3 | K 3.71
G3: L 2.63 | W 1.42 | I 2.13 | N 2.35 | Q 2.88 | K 2.32 | A 2.52 | E 3.3 | C 3.1 | Y 1.95 | S 2.61 | H 2.54 | V 2.98 | F 2.66 | M 2.29 | D 2.38 | R 2.77 | T 2.81 | P 2.78
T4: D 2.52 | I 3.13 | R 1.93 | L 1.82 | E 2.68 | F 2.08 | H 1.9 | Y 1.68 | Q 1.6 | M 1.65 | K 1.72 | S 1.82 | C 1.94 | W 2.52 | N 1.98 | P 2.91 | V 2.5 | A 2.02 | G 2.03
G9: D 3.04 | C 1.41 | A 1.85
I6: R 1.72 | W 2.27 | M 2.07 | D 3.29 | S 1.88 | Q 2.27 | L 2.39 | V 2.16 | P 1.94 | T 1.84 | N 2.07 | H 2.08 | K 2.2 | C 1.87 | F 2.3 | A 2.1 | E 3.02 | G 1.96
G2: W 2.2 | Q 2.02 | P 1.83 | L 2.19 | S 2.11 | T 1.97 | F 2.72 | A 2.2 | N 2.16 | I 2.14 | K 3.55 | R 3.08 | M 2.7 | D 3.46 | C 2.41 | V 1.92 | E 3.9 | H 2.58 | Y 2.55
P7: C 1.5 | F 3.68 | D 2.92 | H 2.13 | G 2.23 | Y 2.5 | L 3.6 | K 2.01 | Q 2.06 | R 2.07 | V 2.92 | M 1.29 | E 2.44 | T 2.33 | S 2.14 | I 1.73 | N 2.4 | A 1.41
G5: P 1.86 | W 2.69 | H 1.92 | D 2.95 | N 2.87 | R 2 | Y 1.34 | M 2.47 | C 1.71 | A 2.07 | F 1.92 | I 3.13 | L 1.89 | Q 2.42 | V 1.9 | T 2.18 | S 2.39 | E 3.42 | K 1.52
F8: I 2.5 | K 3.84 | G 3.58 | V 2.83 | D 4.16 | A 3.78 | T 3.22 | P 4.12 | R 3.37 | S 3.62 | N 3.61 | H 2.65 | W 1.98 | C 3.02 | E 4.3 | L 3.04 | M 3.02 | Q 3.75 | Y 2.16

Variants of: B2
Test: as above
Conditions: c terminus: a fixed tail appended

Protein stability index: each site, then its substitutions
T16: S 2.13 | V 2.33 | K 2.31 | Q 2.17 | Y 2.24 | F 1.89 | N 2.51 | L 1.74 | D 2.58 | R 2.11 | C 2.21 | M 2 | W 1.96 | P 3.02 | I 2.36 | G 2.43 | A 2.4 | H 2.48 | E 2.19
T18: W 2.17 | E 2.36 | I 1.58 | R 1.84 | F 1.73 | V 2.49 | P 2.68 | S 2.83 | L 2.15 | H 2.05 | A 2.1 | Y 2.18 | M 1.7 | D 2.29 | Q 2.34 | G 2.01 | C 1.57 | N 2.24 | K 2
E19: W 2.14 | R 1.78 | M 1.66 | T 1.51 | S 2.61 | A 2.13 | G 2.35 | D 2.42 | P 2.11 | L 1.62 | Y 1.9 | I 2.02 | N 1.72 | Q 2.12 | H 2.01 | C 1.73 | K 1.97 | F 1.87
E20: G 1.6 | P 1.82 | L 1.13 | Y 2.08 | C 2.27 | H 1.97 | R 1.95 | K 1.75 | F 1.97 | D 2.45 | M 1.89 | N 2.5 | I 1.4 | T 1.86 | V 1.79 | Q 1.76 | W 1.66 | A 1.86 | S 1.68
D15: R 1.84 | S 1.76 | Q 1.66 | M 2.53 | N 2.23 | V 2.2 | P 1.83 | L 2.56 | Y 1.1 | T 1.86 | W 1.62
E21: H 1.81 | P 1.65 | G 2.89 | W 2.14 | K 2.16 | N 1.84 | F 1.2 | A 1.94 | M 1.98 | I 2 | Q 2.04 | L 1.56 | S 2.19 | V 1.71 | T 1.74 | C 2.01 | R 2.21 | D 2.07 | Y 1.88
L17: I 2.11 | T 2.63 | N 2.78 | C 2.36 | D 3.2 | V 1.94 | S 2.59 | H 2.26 | R 2.39 | Y 2 | P 2.46 | W 1.75 | A 2.95 | G 2.37 | K 2.51 | F 1.96 | Q 1.98 | E 3.35 | M 2.53
T22: N 2.31 | G 2.08 | V 2.23 | I 2.35 | P 1.69 | S 2.37 | L 2.12 | H 2.06 | M 1.97 | A 2.53 | Q 2.21 | K 2.18 | F 2.25 | D 2.12 | C 2.05 | E 3.21 | W 2.4 | Y 2.75 | R 2.37
Q23: N 2.37 | Y 1.88 | V 2.25 | C 2.24 | S 2.91 | R 3.09 | K 2.45 | D 3.06 | G 2.61 | T 2.09 | A 2.05 | P 2.21 | M 2.4 | F 1.24 | H 2.27 | I 2.12 | E 2.25 | W 1.43 | L 1.74
F24: K 2.53 | H 2.44 | R 2.09 | Q 2.58 | G 2.84 | T 2.42 | E 2.35 | P 2.64 | V 2.65 | C 1.77 | N 2.65 | A 2.28 | I 2.77 | Y 2.52 | W 2.09 | S 2.19 | D 2.97 | L 3.02 | M 2.4
